In the supplement of paper PMC10065799, “High-throughput profiling of sequence recognition by tyrosine kinases and SH2 domains using bacterial peptide display” (eLife, 2023):

Legend:
[1] = target: Fyn (UniProt P06241); assay: phosphorylation enrichment, bacterial display (enrichment ratio); higher = better substrate or ligand; peptides without Tyr show the background
[2] = target: Fes (UniProt P07332); assay: as above
[3] = system: c-Abl (mouse); assay: as above
[4] = target: EPHB1 (UniProt P54762); assay: as above
[5] = target: Jak2 (UniProt O60674); assay: as above
[6] = system: AncSZ; assay: as above
[7] = target: MERTK (UniProt Q12866); assay: as above
[8] = target: FGFR1 (UniProt P11362); assay: as above
[9] = system: c-Src; assay: as above
[10] = target: FGFR3 (UniProt P22607); assay: as above
[11] = target: EPHB2 (UniProt P29323); assay: as above
[12] = target: Hck (UniProt P08631); assay: as above
[13] = system: Fer (mouse); assay: as above
[14] = target: c-Src SH2; assay: SH2 binding enrichment of the phosphorylated peptide, bacterial display (enrichment ratio); higher = better substrate or ligand; peptides without Tyr show the background
[15] = target: Grb2 SH2 (UniProt P62993); assay: as above
[16] = target: SHP2-C SH2; assay: as above
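Wherever SH2 binding enrichment of the phosphorylated peptide, bacterial display is given: peptide library displayed on the E. coli surface as eCPX fusions, selected cells deep-sequenced, score is each peptide's frequency after selection divided by its frequency in the input.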
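Wherever phosphorylation enrichment, bacterial display is given: 11-residue human phosphosite peptides and single-mutation variants displayed on the E. coli surface, counted by deep sequencing, each peptide's frequency after selection divided by its frequency in the unselected input library; frequency after pTyr selection over input frequency; kinase dosed for 20-30% of maximal phosphorylation in three min.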

Sequence of FGFR1 (P11362 whole entry, looked up): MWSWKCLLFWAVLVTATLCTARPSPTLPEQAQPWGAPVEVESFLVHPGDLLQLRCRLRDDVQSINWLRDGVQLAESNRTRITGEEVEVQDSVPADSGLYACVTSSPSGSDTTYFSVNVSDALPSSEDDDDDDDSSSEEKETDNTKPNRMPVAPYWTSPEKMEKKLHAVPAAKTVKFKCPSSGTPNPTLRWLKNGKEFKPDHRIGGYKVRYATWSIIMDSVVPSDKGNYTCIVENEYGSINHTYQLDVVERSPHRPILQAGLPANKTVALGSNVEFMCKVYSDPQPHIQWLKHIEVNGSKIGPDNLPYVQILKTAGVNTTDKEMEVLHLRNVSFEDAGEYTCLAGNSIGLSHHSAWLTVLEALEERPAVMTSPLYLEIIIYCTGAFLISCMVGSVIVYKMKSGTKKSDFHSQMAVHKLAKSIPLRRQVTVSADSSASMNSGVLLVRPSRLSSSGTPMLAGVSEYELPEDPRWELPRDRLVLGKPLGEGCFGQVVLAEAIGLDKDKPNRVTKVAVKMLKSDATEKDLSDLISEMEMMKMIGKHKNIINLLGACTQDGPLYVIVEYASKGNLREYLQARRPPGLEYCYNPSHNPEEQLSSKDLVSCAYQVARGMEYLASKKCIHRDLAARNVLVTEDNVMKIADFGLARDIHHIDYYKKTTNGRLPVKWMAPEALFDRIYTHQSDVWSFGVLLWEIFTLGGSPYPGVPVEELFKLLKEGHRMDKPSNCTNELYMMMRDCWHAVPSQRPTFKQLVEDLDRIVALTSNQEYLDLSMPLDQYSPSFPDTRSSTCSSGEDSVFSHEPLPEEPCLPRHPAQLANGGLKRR
Sequence of MERTK (Q12866 whole entry, looked up): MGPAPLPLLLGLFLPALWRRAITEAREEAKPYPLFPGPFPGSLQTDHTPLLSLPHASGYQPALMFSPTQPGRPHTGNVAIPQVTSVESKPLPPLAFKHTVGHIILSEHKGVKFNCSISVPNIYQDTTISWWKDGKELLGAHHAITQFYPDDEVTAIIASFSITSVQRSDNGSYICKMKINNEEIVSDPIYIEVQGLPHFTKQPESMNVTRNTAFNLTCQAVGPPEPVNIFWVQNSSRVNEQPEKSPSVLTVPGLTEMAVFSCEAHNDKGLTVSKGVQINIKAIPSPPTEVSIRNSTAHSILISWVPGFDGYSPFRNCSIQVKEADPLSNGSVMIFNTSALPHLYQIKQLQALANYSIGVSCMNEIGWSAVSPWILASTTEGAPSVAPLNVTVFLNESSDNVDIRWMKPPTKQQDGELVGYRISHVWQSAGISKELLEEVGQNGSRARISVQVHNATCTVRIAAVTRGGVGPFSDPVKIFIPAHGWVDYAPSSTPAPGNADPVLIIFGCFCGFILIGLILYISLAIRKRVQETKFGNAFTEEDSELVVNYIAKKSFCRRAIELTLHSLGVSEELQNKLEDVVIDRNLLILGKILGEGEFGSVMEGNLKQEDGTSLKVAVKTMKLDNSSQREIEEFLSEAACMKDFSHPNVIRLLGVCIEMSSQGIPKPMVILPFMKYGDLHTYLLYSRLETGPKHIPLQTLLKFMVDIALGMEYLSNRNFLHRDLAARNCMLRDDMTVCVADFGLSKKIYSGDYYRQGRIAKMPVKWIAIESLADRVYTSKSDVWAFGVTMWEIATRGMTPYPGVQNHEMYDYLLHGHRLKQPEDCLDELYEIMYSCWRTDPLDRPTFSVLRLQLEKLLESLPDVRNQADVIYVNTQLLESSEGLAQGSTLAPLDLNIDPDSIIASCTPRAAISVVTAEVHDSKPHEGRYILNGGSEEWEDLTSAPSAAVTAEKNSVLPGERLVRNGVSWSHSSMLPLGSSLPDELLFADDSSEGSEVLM
Sequence of EPHB2 (P29323 whole entry, looked up): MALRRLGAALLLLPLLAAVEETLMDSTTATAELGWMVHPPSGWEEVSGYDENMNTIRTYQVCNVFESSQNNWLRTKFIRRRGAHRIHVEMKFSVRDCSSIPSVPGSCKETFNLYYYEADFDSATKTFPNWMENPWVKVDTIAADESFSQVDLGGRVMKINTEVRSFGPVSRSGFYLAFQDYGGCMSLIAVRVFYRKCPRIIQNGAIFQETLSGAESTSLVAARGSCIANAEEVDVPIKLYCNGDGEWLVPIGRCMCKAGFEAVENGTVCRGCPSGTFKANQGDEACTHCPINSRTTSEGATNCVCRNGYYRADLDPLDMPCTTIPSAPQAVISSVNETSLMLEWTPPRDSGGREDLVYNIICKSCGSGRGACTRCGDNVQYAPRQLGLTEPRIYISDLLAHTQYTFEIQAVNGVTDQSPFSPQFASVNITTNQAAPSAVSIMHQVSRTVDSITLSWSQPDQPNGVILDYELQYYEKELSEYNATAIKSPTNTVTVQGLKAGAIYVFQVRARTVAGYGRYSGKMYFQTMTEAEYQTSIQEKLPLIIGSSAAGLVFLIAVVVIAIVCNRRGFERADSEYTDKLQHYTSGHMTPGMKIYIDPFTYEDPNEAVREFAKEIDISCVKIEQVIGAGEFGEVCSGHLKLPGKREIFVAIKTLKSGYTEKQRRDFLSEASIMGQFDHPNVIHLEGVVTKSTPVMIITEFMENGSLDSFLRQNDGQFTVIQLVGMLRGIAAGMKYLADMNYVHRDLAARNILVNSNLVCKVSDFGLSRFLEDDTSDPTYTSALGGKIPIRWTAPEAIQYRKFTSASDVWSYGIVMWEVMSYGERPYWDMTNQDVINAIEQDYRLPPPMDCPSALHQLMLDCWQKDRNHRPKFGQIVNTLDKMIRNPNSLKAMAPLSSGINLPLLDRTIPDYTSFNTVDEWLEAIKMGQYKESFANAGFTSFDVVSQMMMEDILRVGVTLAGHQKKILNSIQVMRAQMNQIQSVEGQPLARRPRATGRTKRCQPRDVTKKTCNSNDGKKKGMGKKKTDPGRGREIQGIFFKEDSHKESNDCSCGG
Sequence of Hck (P08631 whole entry, looked up): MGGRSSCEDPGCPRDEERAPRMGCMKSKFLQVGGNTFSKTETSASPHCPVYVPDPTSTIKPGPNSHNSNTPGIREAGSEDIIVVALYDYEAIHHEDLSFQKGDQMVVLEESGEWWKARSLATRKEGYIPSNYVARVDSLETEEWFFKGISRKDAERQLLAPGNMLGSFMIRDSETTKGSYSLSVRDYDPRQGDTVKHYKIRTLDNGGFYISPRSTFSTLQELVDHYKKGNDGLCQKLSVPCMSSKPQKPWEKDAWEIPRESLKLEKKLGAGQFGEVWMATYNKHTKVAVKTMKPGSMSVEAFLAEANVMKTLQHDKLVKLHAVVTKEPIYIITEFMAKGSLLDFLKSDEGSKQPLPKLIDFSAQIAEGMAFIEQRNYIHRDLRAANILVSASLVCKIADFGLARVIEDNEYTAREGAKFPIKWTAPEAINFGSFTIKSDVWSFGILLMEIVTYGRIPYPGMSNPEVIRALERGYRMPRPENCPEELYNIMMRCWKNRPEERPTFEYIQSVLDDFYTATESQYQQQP
Sequence of EPHB1 (P54762 whole entry, looked up): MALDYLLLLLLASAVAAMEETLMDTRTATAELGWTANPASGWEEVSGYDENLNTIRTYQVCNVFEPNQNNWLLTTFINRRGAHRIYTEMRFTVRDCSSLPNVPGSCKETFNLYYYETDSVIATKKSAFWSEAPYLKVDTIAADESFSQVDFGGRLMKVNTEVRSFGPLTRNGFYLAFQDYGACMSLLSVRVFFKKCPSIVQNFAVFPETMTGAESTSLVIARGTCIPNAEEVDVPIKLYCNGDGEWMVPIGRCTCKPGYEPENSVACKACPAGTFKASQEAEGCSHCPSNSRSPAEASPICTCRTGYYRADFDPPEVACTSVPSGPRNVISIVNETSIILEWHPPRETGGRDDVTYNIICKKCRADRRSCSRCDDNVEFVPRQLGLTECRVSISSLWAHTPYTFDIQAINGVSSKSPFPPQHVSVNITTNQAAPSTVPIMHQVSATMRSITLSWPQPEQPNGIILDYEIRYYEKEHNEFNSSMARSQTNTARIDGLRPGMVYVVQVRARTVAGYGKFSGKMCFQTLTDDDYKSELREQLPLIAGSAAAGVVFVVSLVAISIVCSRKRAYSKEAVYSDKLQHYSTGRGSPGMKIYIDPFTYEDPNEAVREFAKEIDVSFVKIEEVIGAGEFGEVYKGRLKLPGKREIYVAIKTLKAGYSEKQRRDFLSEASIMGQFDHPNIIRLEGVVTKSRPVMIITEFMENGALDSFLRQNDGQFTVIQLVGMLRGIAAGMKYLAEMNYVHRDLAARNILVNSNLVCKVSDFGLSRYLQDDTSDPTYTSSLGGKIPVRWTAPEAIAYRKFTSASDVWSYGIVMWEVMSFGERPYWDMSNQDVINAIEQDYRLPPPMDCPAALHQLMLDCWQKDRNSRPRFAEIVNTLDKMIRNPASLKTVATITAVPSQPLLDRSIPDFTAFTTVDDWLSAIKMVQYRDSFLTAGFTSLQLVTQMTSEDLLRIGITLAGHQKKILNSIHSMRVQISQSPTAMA
Sequence of Fyn (P06241 whole entry, looked up): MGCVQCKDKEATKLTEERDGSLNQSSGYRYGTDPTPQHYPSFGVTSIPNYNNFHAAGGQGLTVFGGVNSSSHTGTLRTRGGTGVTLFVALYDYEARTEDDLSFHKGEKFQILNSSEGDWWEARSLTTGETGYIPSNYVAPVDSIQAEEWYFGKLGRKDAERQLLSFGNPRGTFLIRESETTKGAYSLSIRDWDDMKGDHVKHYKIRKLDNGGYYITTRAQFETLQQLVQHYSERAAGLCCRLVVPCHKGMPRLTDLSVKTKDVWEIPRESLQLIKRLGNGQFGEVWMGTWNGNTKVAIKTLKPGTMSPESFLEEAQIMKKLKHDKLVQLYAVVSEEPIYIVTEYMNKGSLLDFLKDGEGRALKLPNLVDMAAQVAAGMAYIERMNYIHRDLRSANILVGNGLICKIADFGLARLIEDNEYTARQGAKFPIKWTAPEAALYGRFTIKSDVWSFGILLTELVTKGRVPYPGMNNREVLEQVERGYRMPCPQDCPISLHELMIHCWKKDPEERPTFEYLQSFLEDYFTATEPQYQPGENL

NFNPNYCFAGK [ALK_Y1096_D1091N_YF]
phosphorylation enrichment [1]: 0.612 | phosphorylation enrichment [2]: 0.821 | phosphorylation enrichment [3]: 0.617 | phosphorylation enrichment [4]: 2.56 | phosphorylation enrichment [5]: 0.744 | phosphorylation enrichment [6]: 1.25 | phosphorylation enrichment [7]: 0.846 | phosphorylation enrichment [8]: 0.548 | phosphorylation enrichment [9]: 0.472 | phosphorylation enrichment [10]: 0.666 | phosphorylation enrichment [11]: 1.01 | phosphorylation enrichment [12]: 0.651 | phosphorylation enrichment [13]: 0.706 | SH2 binding enrichment [14]: 0.681 | SH2 binding enrichment [15]: 0.876 | SH2 binding enrichment [16]: 0.881

FSLIHYAGIVD [MYH7_Y582]
phosphorylation enrichment [1]: 0.408 | phosphorylation enrichment [2]: 0.963 | phosphorylation enrichment [3]: 0.609 | phosphorylation enrichment [4]: 0.503 | phosphorylation enrichment [5]: 0.765 | phosphorylation enrichment [6]: 0.997 | phosphorylation enrichment [7]: 0.339 | phosphorylation enrichment [8]: 0.405 | phosphorylation enrichment [9]: 0.343 | phosphorylation enrichment [10]: 0.714 | phosphorylation enrichment [11]: 0.648 | phosphorylation enrichment [12]: 0.458 | phosphorylation enrichment [13]: 0.387 | SH2 binding enrichment [14]: 5.22 | SH2 binding enrichment [15]: 1.45 | SH2 binding enrichment [16]: 19

KQFWRYFAGNL [SLC25A4_Y112]
phosphorylation enrichment [1]: 0.32 | phosphorylation enrichment [2]: 1.03 | phosphorylation enrichment [3]: 0.764 | phosphorylation enrichment [4]: 0.777 | phosphorylation enrichment [5]: 1.04 | phosphorylation enrichment [6]: 0.944 | phosphorylation enrichment [7]: 0.542 | phosphorylation enrichment [8]: 0.461 | phosphorylation enrichment [9]: 0.507 | phosphorylation enrichment [10]: 0.598 | phosphorylation enrichment [11]: 0.53 | phosphorylation enrichment [12]: 0.449 | phosphorylation enrichment [13]: 0.488 | SH2 binding enrichment [14]: 0.899 | SH2 binding enrichment [15]: 1.09 | SH2 binding enrichment [16]: 0.972

CTTTHYNFMCN [TP53_Y234_I232T_YF]
phosphorylation enrichment [1]: 0.437 | phosphorylation enrichment [2]: 0.758 | phosphorylation enrichment [3]: 0.484 | phosphorylation enrichment [4]: 0.397 | phosphorylation enrichment [5]: 0.561 | phosphorylation enrichment [6]: 0.758 | phosphorylation enrichment [7]: 0.393 | phosphorylation enrichment [8]: 0.403 | phosphorylation enrichment [9]: 0.375 | phosphorylation enrichment [10]: 0.557 | phosphorylation enrichment [11]: 0.427 | phosphorylation enrichment [12]: 0.469 | phosphorylation enrichment [13]: 0.466 | SH2 binding enrichment [14]: 3.48 | SH2 binding enrichment [15]: 1.27 | SH2 binding enrichment [16]: 1.79

CDLTDYLMKIL [ACTA1_Y190_R185C]
phosphorylation enrichment [1]: 0.478 | phosphorylation enrichment [2]: 1.7 | phosphorylation enrichment [3]: 0.83 | phosphorylation enrichment [4]: 0.791 | phosphorylation enrichment [5]: 1.13 | phosphorylation enrichment [6]: 1.39 | phosphorylation enrichment [7]: 0.416 | phosphorylation enrichment [8]: 0.476 | phosphorylation enrichment [9]: 0.394 | phosphorylation enrichment [10]: 1.02 | phosphorylation enrichment [11]: 0.75 | phosphorylation enrichment [12]: 0.587 | phosphorylation enrichment [13]: 0.541 | SH2 binding enrichment [14]: 0.664 | SH2 binding enrichment [15]: 0.973 | SH2 binding enrichment [16]: 0.647

IEELTYIIKQD [STX5_Y137]
phosphorylation enrichment [1]: 0.461 | phosphorylation enrichment [2]: 1.52 | phosphorylation enrichment [3]: 0.801 | phosphorylation enrichment [4]: 0.55 | phosphorylation enrichment [5]: 1.25 | phosphorylation enrichment [6]: 1.33 | phosphorylation enrichment [7]: 0.469 | phosphorylation enrichment [8]: 0.551 | phosphorylation enrichment [9]: 0.554 | phosphorylation enrichment [10]: 0.665 | phosphorylation enrichment [11]: 0.578 | phosphorylation enrichment [12]: 0.528 | phosphorylation enrichment [13]: 0.411 | SH2 binding enrichment [14]: 0.404 | SH2 binding enrichment [15]: 0.712 | SH2 binding enrichment [16]: 0.779

IFRASYFRRGD [LTK_Y676_YF]
phosphorylation enrichment [1]: 0.512 | phosphorylation enrichment [2]: 0.879 | phosphorylation enrichment [3]: 0.63 | phosphorylation enrichment [4]: 0.431 | phosphorylation enrichment [5]: 0.668 | phosphorylation enrichment [6]: 0.923 | phosphorylation enrichment [7]: 0.571 | phosphorylation enrichment [8]: 0.465 | phosphorylation enrichment [9]: 0.582 | phosphorylation enrichment [10]: 0.469 | phosphorylation enrichment [11]: 0.438 | phosphorylation enrichment [12]: 0.613 | phosphorylation enrichment [13]: 0.439 | SH2 binding enrichment [14]: 0.315 | SH2 binding enrichment [15]: 0.382 | SH2 binding enrichment [16]: 0.509

LAARFYNWVCF [FLT4_Y1231_S1235C_YF]
phosphorylation enrichment [1]: 0.849 | phosphorylation enrichment [2]: 2.8 | phosphorylation enrichment [3]: 1.39 | phosphorylation enrichment [4]: 1.33 | phosphorylation enrichment [5]: 2.59 | phosphorylation enrichment [6]: 1.87 | phosphorylation enrichment [7]: 1.17 | phosphorylation enrichment [8]: 1.65 | phosphorylation enrichment [9]: 1.21 | phosphorylation enrichment [10]: 2.11 | phosphorylation enrichment [11]: 1.03 | phosphorylation enrichment [12]: 0.967 | phosphorylation enrichment [13]: 2.79 | SH2 binding enrichment [14]: 1.02 | SH2 binding enrichment [15]: 1.04 | SH2 binding enrichment [16]: 0.982

GDGRFYMKEAI [PGM1_Y66]
phosphorylation enrichment [1]: 0.45 | phosphorylation enrichment [2]: 1.11 | phosphorylation enrichment [3]: 0.709 | phosphorylation enrichment [4]: 0.552 | phosphorylation enrichment [5]: 1.03 | phosphorylation enrichment [6]: 0.875 | phosphorylation enrichment [7]: 0.311 | phosphorylation enrichment [8]: 0.52 | phosphorylation enrichment [9]: 0.38 | phosphorylation enrichment [10]: 0.682 | phosphorylation enrichment [11]: 0.613 | phosphorylation enrichment [12]: 0.454 | phosphorylation enrichment [13]: 0.549 | SH2 binding enrichment [14]: 0.561 | SH2 binding enrichment [15]: 0.642 | SH2 binding enrichment [16]: 0.658

HTDDGYMPMSP [IRS1_Y612]
phosphorylation enrichment [1]: 0.839 | phosphorylation enrichment [2]: 1.59 | phosphorylation enrichment [3]: 1.04 | phosphorylation enrichment [4]: 0.787 | phosphorylation enrichment [5]: 1.37 | phosphorylation enrichment [6]: 1.94 | phosphorylation enrichment [7]: 0.883 | phosphorylation enrichment [8]: 1.45 | phosphorylation enrichment [9]: 0.503 | phosphorylation enrichment [10]: 0.757 | phosphorylation enrichment [11]: 0.756 | phosphorylation enrichment [12]: 0.834 | phosphorylation enrichment [13]: 0.824 | SH2 binding enrichment [14]: 2.53 | SH2 binding enrichment [15]: 0.771 | SH2 binding enrichment [16]: 0.882

PGQAAYQKVVA [HBB_Y131_V127G]
phosphorylation enrichment [1]: 0.478 | phosphorylation enrichment [2]: 0.831 | phosphorylation enrichment [3]: 0.491 | phosphorylation enrichment [4]: 0.517 | phosphorylation enrichment [5]: 0.626 | phosphorylation enrichment [6]: 0.68 | phosphorylation enrichment [7]: 0.514 | phosphorylation enrichment [8]: 0.373 | phosphorylation enrichment [9]: 0.579 | phosphorylation enrichment [10]: 0.558 | phosphorylation enrichment [11]: 0.525 | phosphorylation enrichment [12]: 0.361 | phosphorylation enrichment [13]: 0.49 | SH2 binding enrichment [14]: 0.922 | SH2 binding enrichment [15]: 0.984 | SH2 binding enrichment [16]: 0.615

SARFRYLLAEK [LDHB_Y173_M175L]
phosphorylation enrichment [1]: 0.514 | phosphorylation enrichment [2]: 0.697 | phosphorylation enrichment [3]: 0.783 | phosphorylation enrichment [4]: 0.35 | phosphorylation enrichment [5]: 0.641 | phosphorylation enrichment [6]: 0.724 | phosphorylation enrichment [7]: 0.498 | phosphorylation enrichment [8]: 0.439 | phosphorylation enrichment [9]: 0.515 | phosphorylation enrichment [10]: 0.55 | phosphorylation enrichment [11]: 0.477 | phosphorylation enrichment [12]: 0.508 | phosphorylation enrichment [13]: 0.452 | SH2 binding enrichment [14]: 0.437 | SH2 binding enrichment [15]: 0.766 | SH2 binding enrichment [16]: 0.593

TESNNYIFKTL [FAM83B_Y637_YF]
phosphorylation enrichment [1]: 0.528 | phosphorylation enrichment [2]: 1.12 | phosphorylation enrichment [3]: 0.762 | phosphorylation enrichment [4]: 0.604 | phosphorylation enrichment [5]: 0.926 | phosphorylation enrichment [6]: 1.26 | phosphorylation enrichment [7]: 0.664 | phosphorylation enrichment [8]: 0.645 | phosphorylation enrichment [9]: 0.642 | phosphorylation enrichment [10]: 0.82 | phosphorylation enrichment [11]: 1.06 | phosphorylation enrichment [12]: 0.643 | phosphorylation enrichment [13]: 0.597 | SH2 binding enrichment [14]: 0.492 | SH2 binding enrichment [15]: 0.879 | SH2 binding enrichment [16]: 1.2

KAIMIYVSSFF [ACTN4_Y260_T259I_YF]
phosphorylation enrichment [1]: 0.422 | phosphorylation enrichment [2]: 1.06 | phosphorylation enrichment [3]: 0.684 | phosphorylation enrichment [4]: 0.457 | phosphorylation enrichment [5]: 0.925 | phosphorylation enrichment [6]: 0.945 | phosphorylation enrichment [7]: 0.457 | phosphorylation enrichment [8]: 0.446 | phosphorylation enrichment [9]: 0.534 | phosphorylation enrichment [10]: 0.666 | phosphorylation enrichment [11]: 0.606 | phosphorylation enrichment [12]: 0.429 | phosphorylation enrichment [13]: 0.444 | SH2 binding enrichment [14]: 0.567 | SH2 binding enrichment [15]: 0.948 | SH2 binding enrichment [16]: 0.967

SEDSEYFKAFE [CASQ2_Y178_YF]
phosphorylation enrichment [1]: 0.572 | phosphorylation enrichment [2]: 1.41 | phosphorylation enrichment [3]: 0.974 | phosphorylation enrichment [4]: 0.714 | phosphorylation enrichment [5]: 1.34 | phosphorylation enrichment [6]: 1.46 | phosphorylation enrichment [7]: 0.557 | phosphorylation enrichment [8]: 0.608 | phosphorylation enrichment [9]: 0.651 | phosphorylation enrichment [10]: 0.882 | phosphorylation enrichment [11]: 0.653 | phosphorylation enrichment [12]: 0.582 | phosphorylation enrichment [13]: 0.471 | SH2 binding enrichment [14]: 0.544 | SH2 binding enrichment [15]: 0.868 | SH2 binding enrichment [16]: 0.709

LPENPYHSRPR [NDUFA8_Y142]
phosphorylation enrichment [1]: 0.72 | phosphorylation enrichment [2]: 0.632 | phosphorylation enrichment [3]: 0.761 | phosphorylation enrichment [4]: 0.3 | phosphorylation enrichment [5]: 0.552 | phosphorylation enrichment [6]: 0.643 | phosphorylation enrichment [7]: 0.415 | phosphorylation enrichment [8]: 0.442 | phosphorylation enrichment [9]: 1.8 | phosphorylation enrichment [10]: 0.408 | phosphorylation enrichment [11]: 0.41 | phosphorylation enrichment [12]: 0.916 | phosphorylation enrichment [13]: 0.384 | SH2 binding enrichment [14]: 0.561 | SH2 binding enrichment [15]: 1.03 | SH2 binding enrichment [16]: 0.637

NKVKFYIPDMN [NCR1_Y84]
phosphorylation enrichment [1]: 0.396 | phosphorylation enrichment [2]: 0.865 | phosphorylation enrichment [3]: 0.602 | phosphorylation enrichment [4]: 0.496 | phosphorylation enrichment [5]: 0.8 | phosphorylation enrichment [6]: 0.743 | phosphorylation enrichment [7]: 0.388 | phosphorylation enrichment [8]: 0.432 | phosphorylation enrichment [9]: 0.567 | phosphorylation enrichment [10]: 0.66 | phosphorylation enrichment [11]: 0.476 | phosphorylation enrichment [12]: 0.432 | phosphorylation enrichment [13]: 0.448 | SH2 binding enrichment [14]: 0.854 | SH2 binding enrichment [15]: 0.954 | SH2 binding enrichment [16]: 0.849
